The text below walks through data of the nanobody polyreactivity screen of Harvey et al. (2022).

This data set can be described thus: yeast display, Sf9 membrane polyspecificity reagent, FACS + sequencing; frameworks hold sequencing errors. An outline of the steps: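 Galactose induction of a Saccharomyces cerevisiae BJ5465 synthetic nanobody display library ran 36–48 hours. The cells were then stained for 1 hour at 4 °C with 10% biotinylated, detergent-solubilized Sf9 membrane reagent, pulled down on streptavidin microbeads and FACS-sorted into low and high (top ~1%) gates on expression and reagent-binding fluorescence. Labels for polyreactivity follow the gate of origin.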
In the case of “QVQLVESGGGLVQAGGSLRLSCAASGRTFRYYTMGWYRQAPGKERELVAAINDSGDITYYADSVKGRFTISRDNAKNTVSLQMNSLKPEDTAVYYCAASAAYYGFYKSVTYDYWGQGTQVTVSS”, the “polyreactivity (PSR sort gate)” value was “low polyreactivity”. In the case of “QVQLVESGGGLVQAGGSLRLSCAASGRTFRYYTMGWYRQAPGKERELVAAISRGGRTYYADSVKGRFTISRDNAKNTVYLQMNSLKPEDTAVYYCAAQLFREYYYWGQGTQVTVSS”, the “polyreactivity (PSR sort gate)” value is recorded as “high polyreactivity”. Under “QVQLVESGGGLVQAGGSLRLSCAASGRTFSANAMGWYRQAPGKERELVAGITSRGGGTYYADSVKGRFTISRDNAKNTVYLQMNSLKPEDTAVYYCAAPYNGGGVHSYWEYDYWGQGTQVTVSS” stands “high polyreactivity”; under “QVQLVESGGGLVQAGGSLRLSCAASGRTFSAYAMVWYRQAPGKERELVAAISRRGGSTYYADSVKGRFTISRDNAKNTVYLQMKSLKPEDTAVYYCAADVYKQYGYYFWGQGTQVTVSS”, “high polyreactivity”. Consider “QVQLVESGGGLVQAGGSLRLSCAASGRTFSDYTMGWYRQAPGKERELFAAISGSVVNTYYADSVKGRFTISRDNAKNTVYLQMNSLKPEDTAVYYCAKDRIFYHYALYRWRVESYYWGQGTQVTVSS”, for which the “polyreactivity (PSR sort gate)” value is “low polyreactivity”.

As for “QVQLVESGGGLVQAGGSLRLSCAASGRTFSEYAMGWYRQAPGKERELVAAITENGGSTYYADSVKGRFTISRDIAKNTVYLQMNSLKPEDTAVYYCAAETWADWYSEFYWGQGTLVTVSS”, the “polyreactivity (PSR sort gate)” value was “high polyreactivity”. Under “QVQLVESGGGLVQAGGSLRLSCAASGRTFSFNGMGWYRQAPGKERELVAAISRRGTSTYYADSVKGRFTISRDNAKNTVYLQMNSLKPEDTAVYYCAARSTYTRREYDYWGQGTQVTVSS” stands “high polyreactivity”; under “QVQLVESGGGLVQAGGSLRLSCAASGRTFSFYAMGWYRQAPGKERELVAAISRGGGSTYYADSVKGRFTISRDNAKNTVYLQMNSLKPEDTAVYYCAAPFLYRRGYDYWGQGTQVTVSS”, “high polyreactivity”. The same measure for “QVQLVESGGGLVQAGGSLRLSCAASGRTFSFYAMGWYRQAPGKERELVAGIDWDDGSTSYADSVKGRFTISRDNAKNTVYLQMNSLKPEDTEVYYCAADIGYDVYNDYDYWGQGTQVTVSS”: “low polyreactivity”; for “QVQLVESGGGLVQAGGSLRLSCAASGRTFSGNALGWSTHAPGKERELVAAITSSGGSTYYADSVKGRFTISRENAKNTVYLQMNSLKPEDTAVYYCNTDPQGRTVVYGGDDYWGQGTQVTVSS”: “low polyreactivity”; for “QVQLVESGGGLVQAGGSLRLSCAASGRTFSGYAMGWYRPAPGKERELVAAITSGGNTYYADSVKGRFTISRDNAKNTVYFQMNILKPEDTAVYYCATVYADESGIEGYSWGQGTQVTVSS”: “low polyreactivity”. The same measure for “QVQLVESGGGLVQAGGSLRLSCAASGRTFSGYAMGWYRQAPGKERELVAAIDRGDGTNYADSVKGRFTISRDNAKNTVYLQMNSLKPEDTAVYYCAADDYWTPFGYWGQGTQVTVSS”: “low polyreactivity”; for “QVQLVESGGGLVQAGGSLRLSCAASGRTFSGYAMGWYRQAPGKERELVAAITRRGGTTYYADSVKGRFTISRDNAKNTVYLQMNSLKPEDTAVYYCAAAKPRVISQNIIYDYWGQGTQVTVSS”: “high polyreactivity”. Take “QVQLVESGGGLVQAGGSLRLSCAASGRTFSGYAMGWYRQAPGKERELVATITWSSGSTYYADSVKGRFTISRDNAKNTVYLQMNSLKPEDTAVYYCNADQGSALRWSYDYWGQGTQVTVSS”: the “polyreactivity (PSR sort gate)” value is “low polyreactivity”. The same measure for “QVQLVESGGGLVQAGGSLRLSCAASGRTFSGYVMGWYRQAPAKERELVAAIARNGGSRYYADSVKGRFTISRDKAKNTVYLQMNSLTPEDTAVYYCAADASCWRRHYYWGQGTQVTVSS”: “high polyreactivity”; for “QVQLVESGGGLVQAGGSLRLSCAASGRTFSHNAMGWYRQAPGKERELVATISWNGGRTYYADSVKGRFTISRDNAKNTVYLQMNSLKPEDTAVYYCADDRIWVLYRTYFSKYGYWGQGTQVTVSS”: “high polyreactivity”.

As to “QVQLVESGGGLVQAGGSLRLSCAASGRTFSHYAMGWYRQAPGKVRELVADISWNGGRTYYADSVKGRFTISRDNAKNTVYLQMNSLKPEDTAVYYCAKVRYWAWSYEYWGQGTQVTVSS”, the “polyreactivity (PSR sort gate)” value was “high polyreactivity”.

As for “QVQLVESGGGLVQAGGSLRLSCAASGRTFSIYVMGWYRQAPGKERELVAAITSGGRTYYADSVKGRFTISRDNAKNTVYLQMNSLKPEDTAGYYCAAGYWRPGQYYSRYNYWGQGTQVTVSS”, the “polyreactivity (PSR sort gate)” value is “high polyreactivity”. For “QVQLVESGGGLVQAGGSLRLSCAASGRTFSKYAMGWYRQAPGKERELVAAISKRGDSTYYADSVKGRFTISRDNAKNTVYLQMNSLKPEDTAVYYCARDDYRAYKSYYRYGYWGQGTQVTVSS”, the “polyreactivity (PSR sort gate)” value is “low polyreactivity”.

As for “QVQLVESGGGLVQAGGSLRLSCAASGRTFSKYAMGWYRQAPGKERELVAAISSTGGSTYYADSVKGRFTISRDNAKNTVYLQMNSLIPEDTAVYYCATEVYWFHSRAYYYWGQGSQVTVSS”, the “polyreactivity (PSR sort gate)” value is listed as “high polyreactivity”. In the case of “QVQLVESGGGLVQAGGSLRLSCAASGRTFSKYAMGWYRQAPGKERELVASITRSGGSTNYADSVKGRFTISRDNAKNTVYLQINSLKPEDTAVYYCRRKLGRTHASGFDYWGQGTQVTVSS”, the “polyreactivity (PSR sort gate)” value is listed as “low polyreactivity”. In the case of “QVQLVESGGGLVQAGGSLRLSCAASGRTFSKYTMGWYRQAPGKERELVAAIDRSGGSTYYADSVKGRFSISRDNAKNTVYLQMNSLKPEDTAVYYCNTGLRYYSYRRDYWGQGTQVTVSS”, the “polyreactivity (PSR sort gate)” value is reported as “high polyreactivity”.

Turning to “QVQLVESGGGLVQAGGSLRLSCAASGRTFSLDAMGWYRQAPWKERELVASITDSTGGSTYYADSVKGRFTISRDNAKNTVYLQMNSLKPEDTAVYYCAAQDSQYSDYQWWFGYWGQGTQVTVSS”, the “polyreactivity (PSR sort gate)” value is “low polyreactivity”.

Regarding “QVQLVESGGGLVQAGGSLRLSCAASGRTFSLNAMGWYRQAPGKEREFVAAISSTGGSTYYADSVKGRFTISRDNAKNTVYLQMNSLKPEDTAVYYCAKRSVYRTALGRYSVAYDYWGQGTQVTVSS”, the “polyreactivity (PSR sort gate)” value was “high polyreactivity”. The same measure for “QVQLVESGGGLVQAGGSLRLSCAASGRTFSLYDMGWYRQAPGKERELVAAISYSGTRTYYADSVKGRFTISRDNAKNTVYLQMNCLKPEDTAVYYCARVYTVGTGRSWRLDYWGQGTQVTVSS”: “high polyreactivity”; for “QVQLVESGGGLVQAGGSLRLSCAASGRTFSPNAMGWYRQAPGKEREFVAAITWSGGGTFYADSVKGRFTISRDNAKNTVYLQMNSLKPEDTAVYYCAARLDTYQTHSVITPAALYYWGQGTQVTVSS”: “low polyreactivity”; for “QVQLVESGGGLVQAGGSLRLSCAASGRTFSPYAMGWYRQAPGKERELVAAIYNGGSTYYADSVKGRFTISRDNAKNTVYLQMNSLKPEDTAVYYCAAGRKSLYRIYSEYVEFDYWGQGTQVTVSS”: “low polyreactivity”. Regarding “QVQLVESGGGLVQAGGSLRLSCAASGRTFSQYAMGWYRQAPGKERELVAPISWSGGSTYYADSVKGRFTISRDNAKNTVDLQMNSLKPEDTAVFYCAAVGKGSSRSSYPVLYDYWGQGTQVTVSS”, the “polyreactivity (PSR sort gate)” value is given as “low polyreactivity”. Under “QVQLVESGGGLVQAGGSLRLSCAASGRTFSRNAMGWYRHAPGKEWELVAAISRTGGSTYYADSVKGRFTISRDNAKKTVYLQMNSLKPEDTAVYYCAAGTWGWYAYGYWGLGTQVTVSS” stands “high polyreactivity”; under “QVQLVESGGGLVQAGGSLRLSCAASGRTFSRNAMGWYRQAPGKERELVAAISDGGGSTYYADSVKGRFTISRDNAKNPVYLQMNILKPEDTAVYYCAARVLDWRGDIHDSEYWGHGTQVTVSS”, “low polyreactivity”; under “QVQLVESGGGLVQAGGSLRLSCAASGRTFSRNAMGWYRQAPGKERELVAAISQRGVSTYYADSVKGRFTISRDNAKNTVYLQMNSLKPEDTAVYYCNTRGTYRYDYWGQGTQVTVSS”, “low polyreactivity”. Under “QVQLVESGGGLVQAGGSLRLSCAASGRTFSRNAMGWYRQAPGKERELVAAISQSGGRTYYADSVKGRFTISRDNAKNTVYLQMNSLKPEDTAVYYCAAAGTRKALTEYDYWGQGTQVTLSS” stands “high polyreactivity”; under “QVQLVESGGGLVQAGGSLRLSCAASGRTFSRYAMGWYRPAPGKERELVAAISSSGGSTYYADSVKGRFTISRDHAKNTVYLQMNSLKPEDTAVYYCAKYFIRDNRYDYWGQGTQVTVSS”, “high polyreactivity”; under “QVQLVESGGGLVQAGGSLRLSCAASGRTFSRYAMGWYRQAPGKERELVASIRSGGSTNYADSVKGRFTISRDNAKNTVYIQMNSLKPEDTAVYYCANVGRYWNPVYNSFYNFDYWGQGTQVTVSS”, “high polyreactivity”. The same measure for “QVQLVESGGGLVQAGGSLRLSCAASGRTFSRYVMGWYRQAPGKERELVAAISRTGGRTYYADSVKGRFTISRDNAKNTVYLQMNSLKPEDTAVYYCNAGTVLISTYDYWGQGTQVSVSS”: “high polyreactivity”; for “QVQLVESGGGLVQAGGSLRLSCAASGRTFSRYVMGWYRQAPGKERELVAGISQSGARTTYADSVKGRFTISRDNAKNTVYLQMNSLKPEDTAVYYCAAVGYGIRSYYSYDYWGQGTQVTVSS”: “high polyreactivity”. Take “QVQLVESGGGLVQAGGSLRLSCAASGRTFSSYAMGWYRPAPGKERELVAAITKRAGNTYYADSVKGRFTISRDNAKNTVYLQMNSLKPEDTAVYYCAAGWERFRNYNYWGQGTQVTVSS”: the “polyreactivity (PSR sort gate)” value is given as “high polyreactivity”. Take “QVQLVESGGGLVQAGGSLRLSCAASGRTFSSYAMGWYRQAPGKEREFVAAINKNGGSTFYADSVKGRFTISRDNAKNTVYFQMNSLKPEDTAVYYCNADTDWWNPYNYWGQGTQVTVST”: the “polyreactivity (PSR sort gate)” value is listed as “low polyreactivity”.

As to “QVQLVESGGGLVQAGGSLRLSCAASGRTFSSYAMGWYRQAPGKERELVAAINSGGSTNYADSVKGRFTISRDNAKNTVYLQMNSLKPEDTAVYYCNAVTFWGLGYDYWGQGTQVTVSS”, the “polyreactivity (PSR sort gate)” value is given as “low polyreactivity”. “QVQLVESGGGLVQAGGSLRLSCAASGRTFSSYAMGWYRQAPGKERELVAAISWSGGRTYYADSVKGRFTISRDNAKNTVYLQMNSLKPEDTAVYYCAAEGDKRKYWYLYDYWGQGTQVTVSS”: the “polyreactivity (PSR sort gate)” value is “high polyreactivity”.
